Test results reported in patent US20050260733A1, “Proteases and uses thereof” (WYETH, priority 2004, published 2005).

T1: α-2 macroglobulin (Homo sapiens, UniProt P01023)
T1 sequence (P01023 24-1474): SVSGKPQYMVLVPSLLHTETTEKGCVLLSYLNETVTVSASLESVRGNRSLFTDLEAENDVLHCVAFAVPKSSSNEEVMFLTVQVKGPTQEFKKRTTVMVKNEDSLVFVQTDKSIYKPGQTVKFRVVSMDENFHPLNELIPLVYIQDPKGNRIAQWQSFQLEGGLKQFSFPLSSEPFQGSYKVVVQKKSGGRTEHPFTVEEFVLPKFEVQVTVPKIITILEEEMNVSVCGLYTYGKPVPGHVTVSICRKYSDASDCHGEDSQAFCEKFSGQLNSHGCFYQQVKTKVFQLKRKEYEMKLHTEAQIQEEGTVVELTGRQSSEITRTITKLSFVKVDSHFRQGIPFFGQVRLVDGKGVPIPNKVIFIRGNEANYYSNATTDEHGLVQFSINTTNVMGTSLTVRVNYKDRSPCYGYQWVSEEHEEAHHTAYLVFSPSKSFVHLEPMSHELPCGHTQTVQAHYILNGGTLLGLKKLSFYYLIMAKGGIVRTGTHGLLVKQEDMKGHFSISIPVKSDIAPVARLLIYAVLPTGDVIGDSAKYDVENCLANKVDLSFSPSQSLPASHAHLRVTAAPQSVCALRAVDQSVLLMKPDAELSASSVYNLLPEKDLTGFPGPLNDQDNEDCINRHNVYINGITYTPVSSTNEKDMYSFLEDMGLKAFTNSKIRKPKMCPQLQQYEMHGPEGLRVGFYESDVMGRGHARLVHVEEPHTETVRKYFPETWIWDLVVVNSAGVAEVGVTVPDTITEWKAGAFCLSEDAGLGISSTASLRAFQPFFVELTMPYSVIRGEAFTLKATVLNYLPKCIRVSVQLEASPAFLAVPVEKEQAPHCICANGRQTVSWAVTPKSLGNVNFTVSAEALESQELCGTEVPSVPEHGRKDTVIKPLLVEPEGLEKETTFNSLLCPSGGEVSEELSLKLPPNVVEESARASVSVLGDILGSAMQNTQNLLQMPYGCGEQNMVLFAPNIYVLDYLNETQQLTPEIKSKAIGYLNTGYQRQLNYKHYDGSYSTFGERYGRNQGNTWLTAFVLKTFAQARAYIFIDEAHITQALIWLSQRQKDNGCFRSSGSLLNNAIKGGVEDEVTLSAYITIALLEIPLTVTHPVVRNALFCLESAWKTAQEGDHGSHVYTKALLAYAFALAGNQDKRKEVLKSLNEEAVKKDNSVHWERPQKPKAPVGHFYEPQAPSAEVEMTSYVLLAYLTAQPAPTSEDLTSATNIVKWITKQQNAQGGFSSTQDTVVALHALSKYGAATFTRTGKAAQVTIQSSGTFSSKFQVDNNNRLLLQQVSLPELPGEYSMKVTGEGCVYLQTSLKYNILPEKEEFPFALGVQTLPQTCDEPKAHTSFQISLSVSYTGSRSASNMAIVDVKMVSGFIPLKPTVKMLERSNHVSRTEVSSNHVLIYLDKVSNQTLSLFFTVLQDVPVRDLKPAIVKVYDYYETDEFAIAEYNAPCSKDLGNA


Tests used:
Format in all cases: biochemical
bovine aggrecan = bovine aggrecan (Bos taurus, UniProt P13608); experiment: Competitive inhibition ELISA for aggrecanase activity (MAb AGG-C1); conditions: bovine aggrecan digested 16 h at 37° C.; for amount of enzyme required to generate 45% inhibition in the competitive inhibition ELISA: then MAb AGG-C1 added
Chain of bovine aggrecan (P13608 17-2364): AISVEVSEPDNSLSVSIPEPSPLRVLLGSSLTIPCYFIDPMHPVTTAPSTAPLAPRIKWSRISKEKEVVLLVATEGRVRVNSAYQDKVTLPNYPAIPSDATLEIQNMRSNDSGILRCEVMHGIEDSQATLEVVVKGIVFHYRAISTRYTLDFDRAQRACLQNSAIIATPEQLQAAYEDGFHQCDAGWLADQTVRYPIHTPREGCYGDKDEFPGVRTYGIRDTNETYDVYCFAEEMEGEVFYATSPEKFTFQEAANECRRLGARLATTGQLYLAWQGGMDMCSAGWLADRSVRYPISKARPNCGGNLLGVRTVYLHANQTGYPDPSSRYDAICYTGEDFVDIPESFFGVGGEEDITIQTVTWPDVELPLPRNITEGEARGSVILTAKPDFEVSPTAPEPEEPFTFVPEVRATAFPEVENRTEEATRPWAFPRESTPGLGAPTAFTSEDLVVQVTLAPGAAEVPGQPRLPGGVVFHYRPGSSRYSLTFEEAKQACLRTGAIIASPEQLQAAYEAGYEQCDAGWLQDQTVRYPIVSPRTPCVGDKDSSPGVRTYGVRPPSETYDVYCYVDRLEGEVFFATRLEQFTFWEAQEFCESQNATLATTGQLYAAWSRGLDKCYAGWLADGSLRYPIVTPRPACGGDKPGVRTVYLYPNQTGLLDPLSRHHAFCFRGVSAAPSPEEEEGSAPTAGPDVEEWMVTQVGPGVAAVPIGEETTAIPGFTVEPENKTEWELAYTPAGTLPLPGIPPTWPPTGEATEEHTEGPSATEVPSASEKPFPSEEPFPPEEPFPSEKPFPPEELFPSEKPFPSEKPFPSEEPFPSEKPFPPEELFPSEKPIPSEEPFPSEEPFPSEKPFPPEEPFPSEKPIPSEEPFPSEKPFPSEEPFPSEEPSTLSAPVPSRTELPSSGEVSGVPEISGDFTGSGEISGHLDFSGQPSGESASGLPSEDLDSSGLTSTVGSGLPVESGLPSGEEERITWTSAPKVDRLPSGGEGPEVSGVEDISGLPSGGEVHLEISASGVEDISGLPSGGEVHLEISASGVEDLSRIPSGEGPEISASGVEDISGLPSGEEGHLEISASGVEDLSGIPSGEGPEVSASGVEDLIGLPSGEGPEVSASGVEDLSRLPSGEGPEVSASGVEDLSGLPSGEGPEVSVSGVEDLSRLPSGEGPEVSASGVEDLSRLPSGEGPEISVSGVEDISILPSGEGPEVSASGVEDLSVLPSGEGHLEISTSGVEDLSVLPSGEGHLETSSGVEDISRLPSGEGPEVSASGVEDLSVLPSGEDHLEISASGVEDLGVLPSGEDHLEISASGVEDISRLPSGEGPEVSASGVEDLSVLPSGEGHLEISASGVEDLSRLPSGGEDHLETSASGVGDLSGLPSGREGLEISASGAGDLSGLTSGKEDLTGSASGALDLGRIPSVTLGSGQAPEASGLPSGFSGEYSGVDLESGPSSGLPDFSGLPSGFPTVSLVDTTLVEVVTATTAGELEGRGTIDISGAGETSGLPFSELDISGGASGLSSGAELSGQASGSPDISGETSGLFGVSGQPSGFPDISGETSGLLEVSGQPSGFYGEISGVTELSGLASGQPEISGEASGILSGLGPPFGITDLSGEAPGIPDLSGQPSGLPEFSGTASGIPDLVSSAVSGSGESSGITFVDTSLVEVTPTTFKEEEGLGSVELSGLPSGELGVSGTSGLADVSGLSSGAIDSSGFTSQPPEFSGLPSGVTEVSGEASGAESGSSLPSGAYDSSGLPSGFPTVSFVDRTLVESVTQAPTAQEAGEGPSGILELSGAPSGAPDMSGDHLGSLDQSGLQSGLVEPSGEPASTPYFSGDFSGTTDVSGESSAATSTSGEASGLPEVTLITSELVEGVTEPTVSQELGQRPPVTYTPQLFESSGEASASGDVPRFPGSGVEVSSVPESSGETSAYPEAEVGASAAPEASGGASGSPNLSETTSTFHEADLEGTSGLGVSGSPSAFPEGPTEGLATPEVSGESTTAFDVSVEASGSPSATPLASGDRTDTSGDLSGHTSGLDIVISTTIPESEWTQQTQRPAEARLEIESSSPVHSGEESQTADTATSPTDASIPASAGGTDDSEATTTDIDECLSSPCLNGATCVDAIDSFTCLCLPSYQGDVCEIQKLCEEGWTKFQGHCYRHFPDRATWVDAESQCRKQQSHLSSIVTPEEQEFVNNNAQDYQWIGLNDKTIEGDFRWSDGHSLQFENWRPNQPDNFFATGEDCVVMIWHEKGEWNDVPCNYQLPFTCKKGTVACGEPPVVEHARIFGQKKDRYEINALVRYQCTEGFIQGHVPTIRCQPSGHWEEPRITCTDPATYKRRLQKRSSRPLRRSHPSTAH
Experimental: Streptavidin-coated microtiter plates (Pierce, Rockford, Ill.) were coated with N-terminally biotinylated peptide aggc1 (b-aggc1) by incubating each well with 100 μl of b-aggc1 (100 ng/ml) for 1 h at room temperature. After washing 4 times with phosphate-buffered saline containing 0.01% Tween-20 (PBS-Tween), wells were blocked for 1 h at room temperature with 100 μl of PBS-Tween containing 2% BSA, followed by 4 washes with PBS-Tween.
In order to validate the neoepitope nature of MAb AGG-C1, competition mixtures (100 μl) comprised of MAb AGG-C1 (0.04 μg/ml) and 1.0-1000 nmol/ml of the synthetic peptides GGLPLPRNITEGE (SEQ ID NO:22), GGLPLPRNITEGE ARGSVILTVK-CONH2 (SEQ ID NO:23), undigested aggrecan, or ADAMTS-4 digested aggrecan were preincubated for 1 h at room temperature. Mixtures were then transferred to b-aggc1 coated wells. After a further incubation for 1 h at room temperature, the plates were washed 4 times with PBS-Tween then incubated for 1 h at room temperature with 100 μl of peroxidase-conjugated secondary goat anti-mouse IgG (1:10,000). Following 4 final washes with PBS-Tween, the wells were incubated with TMB 1 component microwell peroxidase substrate (BioFX Laboratories, Owings Mills, Md.). Color development was terminated by the addition of 0.18 M H2SO4, and the absorbance was monitored spectrophotometrically at 450 nm.
For the generation of a standard curve, bovine aggrecan (25 μg in 50 μl) was digested with ADAMTS-4 (0.001 ng-5 ng) for 16 h at 37° C. MAb AGG-C1 was then added to each digest (final antibody concentration of 0.04 μg/ml) and these mixtures were preincubated for 1 h at room temperature, followed by transfer to b-aggc1 coated plates and completion of the ELISA.
The standard curve was generated by incubating bovine aggrecan with increasing amounts of recombinant ADAMTS-4 for 16 h at 37° C. followed by addition of MAb AGG-C1 to each digest. Similar assays were performed to estimate the relative aggrecanase activity of ADAMTS-8.

α-2 macroglobulin = target: T1, α-2 macroglobulin; experiment: α2-macroglobulin assay of proteolytic activity; conditions: purified recombinant protein
[1] = target: T2, Bovine articular cartilage aggrecan (Glu373-Ala374 bond) (Bos taurus, UniProt P13608); experiment: Western blotting of enzyme-digested aggrecan with neoepitope antibodies (MAb BC-3, MAb AGG-C1, MAb BC-14)
T2 construct: Bovine articular cartilage aggrecan was incubated with purified ADAMTS-8 or ADAMTS-4; from tissue; host or cells: bovine articular cartilage
T2 sequence (P13608 17-2364): as above
Experimental: Detailed procedures for Western blot analyses are set forth below. Bovine articular cartilage aggrecan was incubated with purified ADAMTS-8 or ADAMTS-4 for 16 h at 37° C. in 50 mM Tris, pH 7.3, containing 100 mM NaCl and 5 mM CaCl2. Digestion products were deglycosylated by incubation for 2 h at 37° C. in the presence of chondroitinase ABC (Seikagaku America, Falmouth, Mass.; 1 mU/μg aggrecan), keratanase (Seikagaku; 1 mU/μg aggrecan) and keratanase II (Seikagaku; 0.02 mU/μg aggrecan). Digestion products were separated on 4-12% Bis-Tris NuPAGE SDS PAGE gels (Invitrogen, Carlsbad, Calif.) and then electrophoretically transferred to nitrocellulose. Immunoreactive products were detected by Western blotting with MAb AGG-C1 (0.04 μg/ml) or MAb BC-3 (Caterson, et al., supra). Alkaline-phosphatase-conjugated secondary goat anti-mouse IgG (Promega Corp., Madison, Wis.; 1:7500) was subsequently incubated with the membranes, and NBT/BCIP substrate (Promega) was used to visualize immunoreactive bands. All antibody incubations were performed for 1 h at room temperature, and the immunoblots were incubated with the substrate for 5-15 min at room temperature to achieve optimum color development.

| amount of enzyme required to generate aggrecan cleavage product giving 45% inhibition in the competitive inhibition ELISA (bovine aggrecan; FIG. 7 standard curve) | amount of enzyme required to generate 45% inhibition in the competitive inhibition ELISA (bovine aggrecan) | proteolytic activity by α2-macroglobulin assay (α-2 macroglobulin) | efficiency of cleaving cartilage aggrecan at Glu373-Ala374 compared with ADAMTS-4 ([1]; same Western blots, FIGS. 6A-6C) | Molecule | cleavage site specificity of aggrecanase activity ([1]; BC-3 and AGG-C1 Western blots) | MAb BC-3 immunoreactive bands (cleavage at Glu373-Ala374) ([1]; MAb BC-3 Western blot, 16 h at 37° C.) | activity on aggrecan substrate compared with full-length recombinant ADAMTS-8 ([1]; AGG-C1 Western blotting) |
| --- | --- | --- | --- | --- | --- | --- | --- |
| approximately 1 ng | 0.0135 pM | – | – | ADAMTS-4: Recombinant ADAMTS-4 used for comparison, spontaneously truncated and lacking the spacer domain (protein) FASLSRFVETLVVADDKMAAFHGAGLKRYLLTVMAAAAKAFKHPSIRNPVSLVVTRLVILGSGEEGPQVGPSAAQTLRSFCAWQRGLNTPEDSDPDHFDTAILFTRQDLCGVSTCDTLGMADVGTVCDPARSCAIVEDDGLQSAFTAAHELGHVFNMLHDNSKPCISLNGPLSTSRHVMAPVMAHVDPEEPWSPCSARFITDFLDNGYGHCLLDKPEAPLHLPVTFPGKDYDADRQCQLTFGPDSRHCPQLPPPCAALWCSGHLNGHAMCQTKHSPWADGTPCGPAQACMGGRCLHMDQLQDFNIPQAGGWGPWGPWGDCSRTCGGGVQFSSRDCTRPVPRNGGKYCEGRRTRFRSCNTEDCPTGSALTFREEQCAAYNHRTDLFKSFPGPMDWVPRYTGVAPQDQCKLTCQAQALGYYYVLEPRVVDGTPCSPDSSSVCVQGRCIHAGCDRIIGSKKKFDKCMVCGGDGSGCSKQSGSFRK | – | – | – |
| – | 46.6 ± 4.8 pM | verified | less efficient than ADAMTS4 | ADAMTS-8: Recombinant human full-length ADAMTS-8 with carboxy-terminal Strep-tag expressed in CHO cells; elution fraction holds pro- and mature forms (protein) RFVSEARFVETLLVADASMAAFYGADLQNHILTLMSVAARIYKHPSIKNSINLMVVKVLIVEDEKWGPEVSDNGGLTLRNFCNWQRRFNQPSDRHPEHYDTAILLTRQNFCGQEGLCDTLGVADIGTICDPNKSCSVIEDEGLQAAHTLAHELGHVLSMPHDDSKPCTRLFGPMGKHHVMAPLFVHLNQTLPWSPCSAMYLTELLDGGHGDCLLDAPRAALPLPTGLPGRMALYQLDQQCRQIFGPDFRHCPNTSAQDVCAQLWCHTDGAEPLCHTKNGSLPWADGTPCGPGHLCSEGSCLPEEEVERPKPVADGGWAPWGPWGECSRTCGGGVQFSHRECKDPEPQNGGRYCLGRRAKYQSCHTEECPPDGKSFREQQCEKYNAYNYTDMDGNLLQWVPKYAGVSPRDRCKLFCRARGRSEFKVFEAKVIDGTLCGPETLAICVRGQCVKAGCDHVVDSPRKLDKCGVCGGKGNSCRKVSGSLTPTNYGYNDIVTIPAGATNIDVKQRSHPGVQNDGNYLALKTADGQYLLNGNLAISAIEQDILVKGTILKYSGSIATLERLQSFRPLPEPLTVQLLTVPGEVFPPKVKYTFFVPNDVDFSMQSSKERATTNIIQPLLHAQWVLGDWSECSSTCGAGWQRRTVECRDPSGQASATCNKALKPEDAKPCESQLCPLGSGSAWSHPQFEK | specific for the Glu^373-Ala^374 site | increased in intensity with increasing amounts | – |
| – | – | active | – | C-terminally truncated ADAMTS-8: Recombinant ADAMTS-8 in which the C-terminal thrombospondin and spacer domains were deleted (protein) MLPAPAAPRWPPLLLLLLLLLLPLARGAPARPAAGGQASELVVPTRLPGSAGELALHLSAFGKGFVLRLAPDDSFLAPEFKIERLGGSGRATGGERGLRGCFFSGTVNGEPESLAAVSLCRGLSGSFLLDGEEFTIQPQGAGGSLAQPHRLQRWGPAGARPLPRGPEWEVETGEGQRQERGDHQEDSEEESQEEEAEGASEPPPPLGATSRTKRFVSEARFVETLLVADASMAAFYGADLQNHILTLMSVAARIYKHPSIKNSINLMVVKVLIVEDEKWGPEVSDNGGLTLRNFCNWQRRFNQPSDRHPEHYDTAILLTRQNFCGQEGLCDTLGVADIGTICDPNKSCSVIEDEGLQAAHTLAHELGHVLSMPHDDSKPCTRLFGPMGKHHVMAPLFVHLNQTLPWSPCSAMYLTELLDGGHGDCLLDAPRAALPLPTGLPGRMALYQLDQQCRQIFGPDFRHCPNTSAQDVCAQLWCHTDGAEPLCHTKNGSLPWADGTPCGPGHLCSEGSCLPEEEVERPKPVADGGWAPWGPWGECSRTCGGGVQFSHRECKDPEPQNGGRYCLGRRAKYQSCHTEECPPDGKSFREQQCEKYNAYNYTDMDGNLLQWVPKYAGVSPRDRCKLFCRARGRSEFKVFEAKVIDGTLCGPETLAICVRGQCVKAGCDHVVDSPRKLDKCGVCGGKGNSCRKVSGSLTPTNYGYNDIVTIPAGATNIDVKQRSHPGVQNDGNYLALKTADGQYLLNGNLAISAIEQDILVKGTILKYSGSIATLERLQSFRPLPEPLTVQLLTVPGEVFPPKVKYTFFVPNDVDFSMQSSKERATTNIIQPLLHAQWVLGDWSECSSTCGAGWQRRTVECRDPSGQASATCNKALKPEDAKPCESQLCPL | – | – | no more active than full-length recombinant ADAMTS-8 |
